In US20160319012A1 (Genentech, published 2016):

Molecular target: T1, hamster phospholipase B-like 2 (PLBL2) (hamster, UniProt G3I6T1 38-585, Used as two conjugates: one with biotin (Biotin-PLBL2) and one with digoxigenin (DIG-PLBL2). Conjugation sites are not stated. Natural mannose-6-phosphate glycans are not carried by the letters.)
T1 construct: Purified hamster PLBL2; also called PLB2; PLBD2
T1 sequence: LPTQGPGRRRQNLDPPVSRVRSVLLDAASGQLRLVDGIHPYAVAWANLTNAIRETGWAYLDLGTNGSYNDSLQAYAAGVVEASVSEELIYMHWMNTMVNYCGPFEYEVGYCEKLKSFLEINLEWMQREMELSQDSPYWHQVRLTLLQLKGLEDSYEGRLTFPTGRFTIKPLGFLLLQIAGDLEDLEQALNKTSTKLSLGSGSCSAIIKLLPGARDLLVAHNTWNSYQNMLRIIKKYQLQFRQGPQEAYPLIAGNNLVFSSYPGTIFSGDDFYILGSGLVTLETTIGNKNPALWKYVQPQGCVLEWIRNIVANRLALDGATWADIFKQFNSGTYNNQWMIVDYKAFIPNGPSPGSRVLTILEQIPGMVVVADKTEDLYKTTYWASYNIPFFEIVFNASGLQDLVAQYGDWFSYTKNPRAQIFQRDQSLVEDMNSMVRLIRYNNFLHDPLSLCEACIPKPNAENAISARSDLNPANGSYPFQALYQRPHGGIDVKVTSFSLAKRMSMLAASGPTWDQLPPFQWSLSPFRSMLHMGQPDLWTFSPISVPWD
Assay: bridging ELISA with Biotin-PLBL2 and DIG-PLBL2, drug tolerance experiment in serum
Protocol: The antibody bridging ELISA assay that was developed and validated to detect antibodies to hamster PLBL2 in human serum used two conjugated reagents to capture all isotypes of antibodies directed against hamster PLBL2: purified hamster PLBL2 conjugated to biotin (Biotin-PLBL2) and purified hamster PLBL2 conjugated to digoxigenin (DIG-PLBL2). Production and purification of hamster PLBL2 was carried out using standard methods known to one skilled in the art is also described in U.S. Provisional Application Nos. 61/877,503 and 61/991,228 and conjugation to biotin or DIG were carried out using standard methods known to one skilled in the art. In this semi-homogenous antibody bridging ELISA assay, 75 μL/well of conjugated solution in assay diluent (PBS/0.5% BSA/0.05% Polysorbate 20/0.05% ProClin 300, pH 7.4±0.1) containing 3 μg/mL of each Biotin-PLBL2 and DIG-PLBL2 were co-incubated overnight (16-24 hours) at ambient temperature with 75 μL/well of 1:20 diluted serum samples and controls in assay diluent in polypropylene micronic tubes (National Scientific Supply Co.; Claremont, C A). […] The plates were read at 450 nm for detection absorbance and 630 nm for reference absorbance.

B1: lebrikizumab (antibody, human IgG4 S228P, kappa, V domains shown)
VH: VTLRESGPALVKPTQTLTLTCTVSGFSLSAYSVNWIRQPPGKALEWLAMIWGDGKIVYNSALKSRLTISKDTSKNQVVLTMTNMDPVDTATYYCAGDGYYPYAMDNWGQGSLVTVSS
VL: DIVMTQSPDSLSVSLGERATINCRASKSVDSYGNSFMHWYQQKPGQPPKLLIYLASNLESGVPDRFSGSGSGTDFTLTISSLQAEDVAVYYCQQNNEDPRTFGGGTKVEIKR
notes: Humanized IgG4; also called anti-IL13 MAb; anti-IL13 monoclonal antibody
binding result: no binding (tested: 50 µg/mL)
